Source: US20260365755 (published 2026)
Numbering of substitutions follows the chain as printed.

T1: FcγRIIa (human, UniProt P12318)
T1 chain: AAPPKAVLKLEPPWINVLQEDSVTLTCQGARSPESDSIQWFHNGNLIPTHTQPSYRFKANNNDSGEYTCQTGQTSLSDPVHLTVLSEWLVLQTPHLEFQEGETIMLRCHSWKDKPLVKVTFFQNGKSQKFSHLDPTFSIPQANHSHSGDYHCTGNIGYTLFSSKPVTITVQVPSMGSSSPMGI

T2: VEGF165 (human, UniProt P15692)
T2 chain: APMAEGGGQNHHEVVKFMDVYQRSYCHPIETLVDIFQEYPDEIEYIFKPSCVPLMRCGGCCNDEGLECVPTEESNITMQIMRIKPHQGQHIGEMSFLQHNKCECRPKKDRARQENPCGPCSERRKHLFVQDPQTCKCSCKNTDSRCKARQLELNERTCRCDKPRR

B1: Q-SBL-111 (antibody)
chain 1: not shown
chain 2: not shown
chain 3: EVQLVESGGGLVQPGGSLRLSCAASGYTFTNYGMNWVRQAPGKGLEWVGWINTYTGEPTYAADFKRRFTFSLDTSKSTAYLQMNSLRAEDTAVYYCAKYPHYYGSSHWYFDVWGQGTLVTVSSASTKGPSVFPLAPSSKSTSGGTAALGCLVKDYFPEPVTVSWNSGALTSGVHTFPAVLQSSGLYSLSSVVTVPSSSLGTQTYICNVNHKPSNTKVDKKVEPKSCDKTHTCPPCPAPELLGGPSVFLFPPKPKDTLMISRTPEVTCVVVDVSHEDPEVKFNWYVDGVEVHNAKTKPREEQYNSTYRVVSVLTVLHQDWLNGKEYKCKVSNKALPAPIEKTISKAKGQPREPQVCTLPPSRREMTKNQVSLWCLVKGFYPSDIAVEWESNGQPENNYKTTPPVLDSDGSFFLYSKLTVDKSRWQQGNVFSCSVMHEALHNHYTQKSLSLSPGK
chain 4: not shown
B2: Q-SBL-105 (antibody)
chain 1: not shown
chain 2: not shown
chain 3: B1 chain 3 with E363R
chain 4: not shown
B3: Q-SBL-112 (antibody)
chain 1: not shown
chain 2: not shown
chain 3: B1 chain 3
chain 4: not shown
B4: Q-SBL-104 (antibody)
chain 1: not shown
chain 2: not shown
chain 3: B1 chain 3 with D405H
chain 4: not shown
B5: Q-SBL-131 (antibody)
chain 1: not shown
chain 2: not shown
chain 3: B1 chain 3 with R362E, D405F
chain 4: not shown
B6: Q-SBL-115 (antibody)
chain 1: not shown
chain 2: not shown
chain 3: B1 chain 3 with R362E, E363R
chain 4: not shown
B7: Q-SBL-110 (antibody)
chain 1: not shown
chain 2: not shown
chain 3: B1 chain 3
chain 4: not shown
B8: Q-SBL-103 (antibody)
chain 1: not shown
chain 2: not shown
chain 3: B1 chain 3 with R362E, E363R
chain 4: not shown
B9: Q-SBL-127 (antibody)
chain 1: not shown
chain 2: not shown
chain 3: B1 chain 3 with R362E, D405F
chain 4: not shown
B10: Q-SBL-137 (antibody)
chain 1: not shown
chain 2: not shown
chain 3: B1 chain 3 with R362E, K415S
chain 4: not shown
B11: Q-SBL-135 (antibody)
chain 1: not shown
chain 2: not shown
chain 3: B1 chain 3 with R362E, K415V
chain 4: not shown
B12: Q-SBL-114 (antibody)
chain 1: not shown
chain 2: not shown
chain 3: B1 chain 3 with R362E, D405H
chain 4: not shown
B13: Q-SBL-129 (antibody)
chain 1: not shown
chain 2: not shown
chain 3: B1 chain 3 with R362E, D405F
chain 4: not shown
B14: Q-SBL-109 (antibody)
chain 1: not shown
chain 2: not shown
chain 3: B1 chain 3
chain 4: not shown
B15: Q-SBL-130 (antibody)
chain 1: not shown
chain 2: not shown
chain 3: B1 chain 3 with R362E, D405F
chain 4: not shown
B16: Q-SBL-117 (antibody)
chain 1: not shown
chain 2: not shown
chain 3: B1 chain 3 with R362K
chain 4: not shown
B17: Q-SBL-102 (antibody)
chain 1: not shown
chain 2: not shown
chain 3: B1 chain 3 with R362E, D405H
chain 4: not shown
B18: Q-SBL-136 (antibody)
chain 1: not shown
chain 2: not shown
chain 3: B1 chain 3 with R362E, K415T
chain 4: not shown
B19: Q-SBL-106 (antibody)
chain 1: not shown
chain 2: not shown
chain 3: B1 chain 3 with R362E, E363R, D405H
chain 4: not shown
B20: Q-SBL-101 (antibody)
chain 1: not shown
chain 2: not shown
chain 3: B1 chain 3
chain 4: not shown
B21: Q-SBL-113 (antibody)
chain 1: not shown
chain 2: not shown
chain 3: B1 chain 3
chain 4: not shown
B22: Q-SBL-116 (antibody)
chain 1: not shown
chain 2: not shown
chain 3: B1 chain 3 with R362K
chain 4: not shown

Assays:
C1q = C1q (human, UniProt P02745); assay: BLI
FcγRIIa = molecular target: T1, FcγRIIa; assay: BLI
FcγRIIIa = FcγRIIIa (human, UniProt P08637); assay: BLI
FcRn = FcRn (human, UniProt P55899); assay: BLI
VEGF165 = molecular target: T2, VEGF165; assay: ELISA

Chain of C1q (P02745 23-245, chain 1 of 3): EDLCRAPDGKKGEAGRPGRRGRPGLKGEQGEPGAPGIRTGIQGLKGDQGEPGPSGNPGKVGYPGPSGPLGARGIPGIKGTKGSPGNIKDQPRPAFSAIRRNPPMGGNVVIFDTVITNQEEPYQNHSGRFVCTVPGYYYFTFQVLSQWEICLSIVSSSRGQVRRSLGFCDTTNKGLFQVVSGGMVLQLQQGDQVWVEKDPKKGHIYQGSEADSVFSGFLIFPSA
Chain of C1q (P02746 28-253, chain 2 of 3, further chain): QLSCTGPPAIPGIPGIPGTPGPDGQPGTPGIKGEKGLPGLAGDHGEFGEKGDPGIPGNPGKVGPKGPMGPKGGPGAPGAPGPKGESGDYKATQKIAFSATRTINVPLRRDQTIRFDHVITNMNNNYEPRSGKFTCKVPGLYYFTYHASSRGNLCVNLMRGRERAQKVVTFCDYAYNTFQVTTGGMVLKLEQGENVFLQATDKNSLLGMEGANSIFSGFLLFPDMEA
Chain of C1q (P02747 29-245, chain 3 of 3, further chain): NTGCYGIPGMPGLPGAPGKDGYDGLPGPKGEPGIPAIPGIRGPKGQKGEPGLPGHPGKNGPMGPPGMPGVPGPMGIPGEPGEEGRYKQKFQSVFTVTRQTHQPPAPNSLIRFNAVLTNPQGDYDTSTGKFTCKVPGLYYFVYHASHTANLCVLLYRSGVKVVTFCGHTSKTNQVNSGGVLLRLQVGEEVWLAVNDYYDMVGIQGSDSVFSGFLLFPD
Chain of FcγRIIIa (P08637 17-208): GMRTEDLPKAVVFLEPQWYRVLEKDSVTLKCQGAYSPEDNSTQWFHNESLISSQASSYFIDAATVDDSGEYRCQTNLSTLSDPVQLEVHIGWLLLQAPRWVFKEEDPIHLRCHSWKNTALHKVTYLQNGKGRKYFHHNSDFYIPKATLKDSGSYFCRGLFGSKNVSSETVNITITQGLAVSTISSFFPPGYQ
Chain of FcRn (P55899 24-297, chain 1 of 2): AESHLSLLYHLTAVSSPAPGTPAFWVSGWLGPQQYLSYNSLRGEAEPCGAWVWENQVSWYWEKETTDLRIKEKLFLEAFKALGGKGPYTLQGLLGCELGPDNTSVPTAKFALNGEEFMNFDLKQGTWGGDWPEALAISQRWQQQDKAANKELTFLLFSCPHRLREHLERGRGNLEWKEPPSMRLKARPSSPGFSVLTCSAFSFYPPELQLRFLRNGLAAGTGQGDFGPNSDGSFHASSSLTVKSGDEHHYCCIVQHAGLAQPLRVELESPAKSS
Chain of FcRn (chain, as listed by the source, chain 2 of 2): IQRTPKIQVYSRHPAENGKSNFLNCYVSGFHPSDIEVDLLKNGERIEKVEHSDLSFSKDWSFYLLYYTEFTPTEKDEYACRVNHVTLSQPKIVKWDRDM

Row | Binder | Kd (C1q) | Kd (FcγRIIa) | Kd (FcγRIIIa) | Kd (FcRn) | EC50 (VEGF165)
1 | B1 | 30 nM | 2040 nM | 490 nM | 690 nM | –
2 | B2 | – | 1910 nM | 430 nM | 710 nM | –
3 | B3 | 32 nM | 2020 nM | 600 nM | 720 nM | 0.149 nM
4 | B4 | – | 1870 nM | – | 680 nM | –
5 | B5 | 16 nM | 1620 nM | 330 nM | 670 nM | –
6 | B6 | 18 nM | 1970 nM | 290 nM | 690 nM | –
7 | B7 | – | 2290 nM | 570 nM | 610 nM | 0.168 nM
8 | B8 | 40 nM | 1130 nM | 220 nM | – | –
9 | B9 | 18 nM | 1630 nM | 230 nM | 750 nM | –
10 | B10 | 24 nM | 2120 nM | 380 nM | 580 nM | –
11 | B11 | – | 1380 nM | 300 nM | 650 nM | –
12 | B12 | 18 nM | 1860 nM | 230 nM | – | –
13 | B13 | 16 nM | 1670 nM | 290 nM | 700 nM | 0.17 nM
14 | B14 | 28 nM | 2200 nM | 340 nM | 640 nM | –
15 | B15 | 17 nM | 1720 nM | 290 nM | 740 nM | –
16 | B16 | 40 nM | 2550 nM | 360 nM | – | –
17 | B17 | 40 nM | 1700 nM | 420 nM | 710 nM | –
18 | B18 | – | 1970 nM | 230 nM | 620 nM | –
19 | B19 | – | – | – | 680 nM | –
20 | B20 | 36 nM | 2460 nM | 500 nM | 730 nM | –
21 | B21 | 36 nM | 2140 nM | 600 nM | 690 nM | 0.154 nM
22 | B22 | 33 nM | 2340 nM | 370 nM | 650 nM | –
